Results reported in paper PMC5698441, “Molecular basis of AKAP79 regulation by calmodulin” (Nature Communications, 2017).

Target: T1, biotin-CaM and GST-AKAP79 (1–153) (Homo sapiens, UniProt P0DP23)
T1 construct: made in house; host or cells: E. coli BL21 (DE3)
Experiment: alphascreen disruption of biotin-CaM / GST-AKAP79 (1–153) interaction
Format: binding
Settings: 20-mer scanning peptides at 100 nM; biotin-CaM 10 nM; 1 mM CaCl2, 20 mM HEPES pH 7.2; preincubation 1 h 22 °C; mean ± s.e.m., n = 5 (Fig. 2d)
Protocol: To examine whether this could correspond to the CaM-binding site in AKAP79, we used a complementary method - the amplified luminescent proximity homogenous assay (alpha)-screen technique-to scan the N-terminus of AKAP79 for sequences that could mediate interactions with CaM. […] We screened peptides derived from the N-terminus of AKAP79 for their ability to reduce alphascreen emission. […] The effect of each peptide at 100 nM concentration on CaM–AKAP79 (1–153) interaction is shown in Fig. 2d as log2 emission ratios (with/without peptide).
To determine whether these basic amino acids contribute to the interaction, we compared how effectively peptides of different lengths could disrupt CaM–AKAP79 interaction.
In general, assays were performed in 50 μL buffer consisting of 20 mM HEPES pH 7.2, 100 mM NaCl, 0.1% BSA, 1 mM EGTA, 5 mM MgCl2, 1 mM CaCl2. CaCl2 was excluded where appropriate.
To determine the K Ca for CaM binding to calcineurin and AKAP79, the CaCl2 concentration was varied to produce different free Ca^2+ concentrations on the basis of calculations using maxchelator[43]. After initial incubations, anti-GST acceptor beads (PerkinElmer) were added at 10 ng/μL. […] After 1 h further incubation with vigorous shaking in a thermomixer (1200 r.p.m.), light emission at 568 nm was measured following excitation with a 680 nm laser using a Mithras LB 940 (Berthold Technologies). […]

In the case of “D: 20-mer peptide of the AKAP79 N-terminus walk, positions 36-55 (CFKRRKKAAKALKPKAGSEA; UniProt P24588 36-55, looked up, fragment)”, the “alphascreen signal compared to untreated samples (emission ratio with/without peptide)” value is reported as “did not”.
